From patent US6972319B1, “Pituitary adenylate cyclase activating peptide (PACAP)receptor 3 (R3) agonists and their pharmacological methods of use” (priority 1999, dated 2005)
Non-standard residues stand in square brackets, D forms with d. No end group written: not given here. Nle = CCCC[C@H](N)C(=O)O

T1: PACAP-R3 (Homo sapiens, UniProt P41587)
T1 sequence (P41587 24-438): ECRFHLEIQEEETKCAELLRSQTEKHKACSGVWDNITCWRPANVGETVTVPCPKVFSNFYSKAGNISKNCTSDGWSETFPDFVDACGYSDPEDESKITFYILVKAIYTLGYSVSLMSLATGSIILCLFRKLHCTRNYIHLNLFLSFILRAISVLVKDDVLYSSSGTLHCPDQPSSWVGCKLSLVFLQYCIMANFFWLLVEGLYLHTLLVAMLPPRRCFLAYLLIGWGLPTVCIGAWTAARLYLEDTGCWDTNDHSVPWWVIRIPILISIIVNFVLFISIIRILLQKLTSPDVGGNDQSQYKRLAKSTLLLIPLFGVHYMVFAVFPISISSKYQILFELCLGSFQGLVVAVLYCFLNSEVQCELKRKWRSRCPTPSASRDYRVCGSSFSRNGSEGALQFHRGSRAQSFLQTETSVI

T2: PACAP-R3 (human, UniProt P41587 24-438)
T2 sequence (looked up): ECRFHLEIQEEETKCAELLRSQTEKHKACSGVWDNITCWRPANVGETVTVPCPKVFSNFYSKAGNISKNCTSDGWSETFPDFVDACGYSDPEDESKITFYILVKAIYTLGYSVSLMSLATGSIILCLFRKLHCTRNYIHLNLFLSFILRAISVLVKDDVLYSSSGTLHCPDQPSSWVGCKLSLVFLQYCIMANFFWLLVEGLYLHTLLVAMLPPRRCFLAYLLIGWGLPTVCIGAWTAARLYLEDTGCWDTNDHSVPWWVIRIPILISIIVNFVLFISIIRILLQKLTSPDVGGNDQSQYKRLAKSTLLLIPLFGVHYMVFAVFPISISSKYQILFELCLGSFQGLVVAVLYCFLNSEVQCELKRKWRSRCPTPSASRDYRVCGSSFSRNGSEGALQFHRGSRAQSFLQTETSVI


biological target: T1, PACAP-R3; assay: Cyclic AMP SPA on CHO cells expressing PACAP R3; assay type: cell-based; design: expressed in transfected cells; host or cells: CHO cells (Geneticin selection); conditions: not given
Description: CHO cells expressing the PACAP R3 were plated in 96-well plates (Costar) at 8×10^4 cell/well and grown at 37 C. for 24 hours in α MEM+nucleosides+glutamine (Giobco BRL), 10% FBS, 100 μg/ml Pen/Strep, 0.3 mg/ml glutamine, 1 mM HEPES, 0.5 mg/ml Geneticin (Gibco BRL). The media was removed and the plates were washed with PBS. The cells were incubated with a peptide, in Hepes-PBS-BSA with 0.4 mg/mlSoybean Trypsin Inhibitor, 0.5 mg/ml Bacitracin, 100 uM IBMX, for 15 min at 37 C. Cyclic AMP in the cell extracts was quantitated using the cAMP SPA direct screening assay system (Amersham Pharmacia Biotech Inc, Piscataway, N.J.,). The peptides shown in Table 3 were assayed for cAMP activity.
EC50 is defined as the concentration of the polypeptide at which 50% of maximum PACAP27 activity is achieved. “NA” denotes no detectable activities. “R3 Selectivity” is derived from the ratio of EC50 at R2 versus EC50 at R3.

Molecule | EC50 [nM]
HSDAVFTDDYTRLRKEVAAKKYLESIKDKRY [Peptide R3P173] | 200

same assay, conditions: cAMP SPA, CHO cells transfected with PACAP-R3; concentration at which 50% of maximum PACAP27 activity is achieved; NA = no detectable activities; read-out: R3 EC50

Molecule | EC50 [nM]
H-HSDAVFTDNYTRLRKQLAVKKYLNDIKKGGT-OH [Peptide R3P21] | 0.3
H-HSDAVFTDNYTRLRKQMAAKKYLNSIGNKR-OH [Peptide R3P121] | 1
H-HSDAVFTDNYTRLRKQMAGKKYLNSIQNRI-OH [rR3P185] | 4.5
H-HSDAVFTDNYTRLRKQMAPKKYLNSIKNKR [Peptide R3P108] | 300
HSDAVFTDNYTRLRKQMAQKKYLNSIKNKR [Peptide R3P109] | 10

Further lines, results first:

EC50 [nM] | Molecule
0.16 | CC[C@H](C)[C@H](NC(=O)[C@@H](NC(=O)[C@H](CC(N)=O)NC(=O)[C@H](CC(C)C)NC(=O)[C@H](Cc1ccc(O)cc1)NC(=O)[C@H](CCCCN)NC(=O)[C@H](CCCCN)NC(=O)[C@H](C)NC(=O)[C@H](C)NC(=O)[C@H](CC(C)C)NC(=O)[C@H](CCC(N)=O)NC(=O)[C@H](CCCCN)NC(=O)[C@H](CCCNC(=N)N)NC(=O)[C@H](CC(C)C)NC(=O)[C@H](CCCNC(=N)N)NC(=O)[C@@H](NC(=O)[C@H](Cc1ccc(O)cc1)NC(=O)[C@H](CCC(N)=O)NC(=O)[C@H](CC(=O)O)NC(=O)[C@@H](NC(=O)[C@H](Cc1ccccc1)NC(=O)[C@@H](NC(=O)[C@H](C)NC(=O)[C@H](CC(=O)O)NC(=O)[C@H](CO)NC(=O)[C@@H](N)Cc1c[nH]cn1)C(C)C)[C@@H](C)O)[C@@H](C)O)[C@@H](C)O)C(=O)N[C@@H](CCCCN)C(=O)N[C@@H](CC(N)=O)C(=O)N[C@@H](CCCCN)C(=O)N[C@@H](CCCNC(=N)N)C(=O)N[C@@H](Cc1ccc(O)cc1)C(=O)O [Peptide R3P72]
0.08 | CC[C@H](C)[C@H](NC(=O)[C@H](CO)NC(=O)[C@H](CCC(N)=O)NC(=O)[C@H](CC(C)C)NC(=O)[C@H](Cc1ccc(O)cc1)NC(=O)[C@H](CCCCN)NC(=O)[C@H](CCCCN)NC(=O)[C@H](C)NC(=O)[C@H](C)NC(=O)[C@@H](NC(=O)[C@H](CCC(N)=O)NC(=O)[C@H](CCCCN)NC(=O)[C@H](CCCNC(=N)N)NC(=O)[C@H](CC(C)C)NC(=O)[C@H](CCCNC(=N)N)NC(=O)[C@@H](NC(=O)[C@H](Cc1ccc(O)cc1)NC(=O)[C@H](CC(N)=O)NC(=O)[C@H](CC(=O)O)NC(=O)[C@@H](NC(=O)[C@H](Cc1ccccc1)NC(=O)[C@@H](NC(=O)[C@H](C)NC(=O)[C@H](CC(=O)O)NC(=O)[C@H](CO)NC(=O)[C@@H](N)Cc1c[nH]cn1)C(C)C)[C@@H](C)O)[C@@H](C)O)C(C)C)C(=O)N[C@@H](CC(C)C)C(=O)N[C@@H](CCCCN)C(=O)N[C@@H](CCCCN)C(=O)N[C@@H](CCCNC(=N)N)C(=O)N[C@@H](Cc1ccc(O)cc1)C(=O)O [Peptide R3P83]
0.3 | CC[C@H](C)[C@H](NC(=O)[C@H](CO)NC(=O)[C@H](CC(N)=O)NC(=O)[C@H](CC(C)C)NC(=O)[C@H](Cc1ccc(O)cc1)NC(=O)[C@H](CCCCN)NC(=O)[C@H](CCCCN)NC(=O)[C@H](CC(C)C)NC(=O)[C@H](C)NC(=O)[C@H](CCSC)NC(=O)[C@H](CCC(N)=O)NC(=O)[C@H](CCCCN)NC(=O)[C@H](CCCNC(=N)N)NC(=O)[C@H](CC(C)C)NC(=O)[C@H](CCCNC(=N)N)NC(=O)[C@@H](NC(=O)[C@H](Cc1ccc(O)cc1)NC(=O)[C@H](CC(N)=O)NC(=O)[C@H](CC(=O)O)NC(=O)[C@@H](NC(=O)[C@H](Cc1ccccc1)NC(=O)[C@@H](NC(=O)[C@H](C)NC(=O)[C@H](CC(=O)O)NC(=O)[C@H](CO)NC(=O)[C@@H](N)Cc1c[nH]cn1)C(C)C)[C@@H](C)O)[C@@H](C)O)C(=O)N[C@@H](CCCCN)C(=O)N[C@@H](CC(N)=O)C(=O)N[C@@H](CCCCN)C(=O)N[C@@H](CCCNC(=N)N)C(=O)O [Peptide R3P105]
3 | CC[C@H](C)[C@H](NC(=O)[C@H](CO)NC(=O)[C@H](CC(N)=O)NC(=O)[C@H](CC(C)C)NC(=O)[C@H](Cc1ccc(O)cc1)NC(=O)[C@H](CCCCN)NC(=O)[C@H](CCCCN)NC(=O)[C@H](CO)NC(=O)[C@H](C)NC(=O)[C@H](CCSC)NC(=O)[C@H](CCC(N)=O)NC(=O)[C@H](CCCCN)NC(=O)[C@H](CCCNC(=N)N)NC(=O)[C@H](CC(C)C)NC(=O)[C@H](CCCNC(=N)N)NC(=O)[C@@H](NC(=O)[C@H](Cc1ccc(O)cc1)NC(=O)[C@H](CC(N)=O)NC(=O)[C@H](CC(=O)O)NC(=O)[C@@H](NC(=O)[C@H](Cc1ccccc1)NC(=O)[C@@H](NC(=O)[C@H](C)NC(=O)[C@H](CC(=O)O)NC(=O)[C@H](CO)NC(=O)[C@@H](N)Cc1c[nH]cn1)C(C)C)[C@@H](C)O)[C@@H](C)O)C(=O)N[C@@H](CCCCN)C(=O)N[C@@H](CC(N)=O)C(=O)N[C@@H](CCCCN)C(=O)N[C@@H](CCCNC(=N)N)C(=O)O [Peptide R3P111]
3 | Ac-HSDAVFTENYTKLRKQLAAKKYLNDLKKGGT [Peptide R3P2]
34 | HKDGIFTDSYSRYRKQMAVKKYLAAVL-NH2 [PAC2]

same assay, conditions: ratio of EC50 at R2 versus EC50 at R3

Molecule | R3 Selectivity
H-HSDAVFTDNYTRLRKQLAVKKYLNDIKKGGT-OH [Peptide R3P21] | 60
H-HSDAVFTDNYTRLRKQMAAKKYLNSIGNKR-OH [Peptide R3P121] | 50
H-HSDAVFTDNYTRLRKQMAGKKYLNSIQNRI-OH [rR3P185] | 40
H-HSDAVFTDNYTRLRKQMAPKKYLNSIKNKR [Peptide R3P108] | 3
HSDAVFTDNYTRLRKQMAQKKYLNSIKNKR [Peptide R3P109] | 100
HSDGIFTDSYSRYRKQLAAKKYLADVKK [Peptide R3P38] | 7

biological target: T2, PACAP-R3; assay: cell-based or functional assay; conditions: not given

Molecule | R3 EC50 [nM] | R3 Selectivity
HSDAVFTDNYTRLRKQMAAKKYLNSILN [R3P47] | 0.12 | 6
Ac-HSDAVFTENYTKLRKQLAAKKYLNDLKKGGT (ends and bridges not checked) [R3P2] | 3 | > 300
HSDAVFTDNYTRLRKQMAAKKYLNSIKKKRY [R3P52] | 0.4 | > 250
HSDAVFTDNYTRLRKQMAAKKYLNSIKN [R3P49] | 0.27 | 30
Ac-HSDAVFTENYTKLRKQ[Nle]AAKKYLNDLKKGGT-NH2 [R3P0] | 0.4 | > 250
HSDAVFTDNYTRLRKQLAVKKYLNSILN [R3P46] | 0.06 | 7
HSDAVFTDNYTRLRKQMAAKKYLNSIKKK [R3P54] | 0.5 | > 200
HSDAVFTDNYTRLRKQMAVKKYLNDILN [R3P48] | 0.13 | 8
HSDAVFTDNYTRLRKQMAAKKYLNSIKKKR [R3P53] | 0.2 | 2500
HSDAVFTDNYTRLRKQMAAKKYLNSIKK [R3P51] | 0.26 | 90
HSDAVFTDNYTRLRKQMAAKKYLNSILK [R3P50] | 0.13 | 6
Ac-HSDAVFTENYTKLRKQLAAKKYLNDLKKGGT-NH2 [R3P1] | 2 | > 50

More lines, now with the values ahead:

R3 EC50 [nM] | R3 Selectivity | Molecule
0.15 | 70 | HSDAVFTDNYTRLRKQMAVKKYLNSIKNKRY [R3P59]
0.4 | 100 | HSDAVFTDNYTRLRKQMAVKKYLNSIKKKRY [R3P56]
0.17 | 280 | HSDAVFTDNYTRLRKQMAAKKYLNSIKNKRY [R3P55]
0.8 | 140 | HSDAVFTDNYTRLRKQIAAKKYLQTIKK [R3P61]
0.32 | 170 | HSDAVFTDNYTRLRKQMAVKKYLNSIKKK [R3P58]
0.23 | 190 | HSDAVFTDNYTRLRKQMAVKKYLNSIKKKR [R3P57]
1 | 120 | HSDAVFTDNYTRLRKQVAAKKYLQSIKK [R3P60]
